The values below come from patent US20090074762A1.

The assay addresses T1, TweakR on cells (TweakR-expressing cells, TweakR transfectant cell line, A375 melanoma cells, tumor tissue) (human) (UniProt Q9NP84).
T1 sequence: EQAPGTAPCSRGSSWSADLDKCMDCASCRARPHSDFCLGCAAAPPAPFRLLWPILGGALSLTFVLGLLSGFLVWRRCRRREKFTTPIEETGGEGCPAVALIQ
As to the kind of experiment: cell-based or functional assay.

Take anti-TweakR antibody ITEM2: the agonist activity (IL-8 release assay) is 28%.
